From US20220143024A1, “METHODS OF USING IMIPRIDONES” (Board of Regents, The University of Texas System, priority 2019, published 2022)

Experiments:
Experiment in all cases: BioID-MS +ONC201
SDHB (human) = SDHB (human) (UniProt P21912)
FMC1 (human) = FMC1 (human) (UniProt Q96HJ9)
MRPS16 (human) = MRPS16 (human) (UniProt Q9Y3D3)
NUDT19 (human) = NUDT19 (human) (UniProt A8MXV4)
GRPEL1 (human) = GRPEL1 (human) (UniProt Q9HAV7)
ETFB (human) = ETFB (human) (UniProt P38117)
C8orf82 (human) = C8orf82 (human) (UniProt Q6P1X6)
Chain of C8orf82 (human) (Q6P1X6 whole entry): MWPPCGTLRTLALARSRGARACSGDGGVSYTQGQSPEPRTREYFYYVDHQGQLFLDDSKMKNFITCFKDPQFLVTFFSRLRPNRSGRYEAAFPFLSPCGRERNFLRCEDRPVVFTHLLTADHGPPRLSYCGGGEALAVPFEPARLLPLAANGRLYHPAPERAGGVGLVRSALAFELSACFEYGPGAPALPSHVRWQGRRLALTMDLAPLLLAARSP

ALDH6A1 (human) = ALDH6A1 (human) (UniProt Q02252)
PIN1 (human) = PIN1 (human) (UniProt Q13526)
POLRMT (human) = POLRMT (human) (UniProt O00411)
NUDT1 (human) = NUDT1 (human) (UniProt P36639)
PET112 (human) = PET112 (human) (UniProt O75879)
EARS2 (human) = EARS2 (human) (UniProt Q5JPH6)
CARS2 (human) = CARS2 (human) (UniProt Q9HA77)
COQ6 (human) = COQ6 (human) (UniProt Q9Y2Z9)
ACAA2 (human) = ACAA2 (human) (UniProt P42765)
OGDH (human) = OGDH (human) (UniProt Q02218)
C2orf56 (human) = C2orf56 (human) (UniProt Q7L592)
Chain of C2orf56 (human) (Q7L592 47-441 limits assumed): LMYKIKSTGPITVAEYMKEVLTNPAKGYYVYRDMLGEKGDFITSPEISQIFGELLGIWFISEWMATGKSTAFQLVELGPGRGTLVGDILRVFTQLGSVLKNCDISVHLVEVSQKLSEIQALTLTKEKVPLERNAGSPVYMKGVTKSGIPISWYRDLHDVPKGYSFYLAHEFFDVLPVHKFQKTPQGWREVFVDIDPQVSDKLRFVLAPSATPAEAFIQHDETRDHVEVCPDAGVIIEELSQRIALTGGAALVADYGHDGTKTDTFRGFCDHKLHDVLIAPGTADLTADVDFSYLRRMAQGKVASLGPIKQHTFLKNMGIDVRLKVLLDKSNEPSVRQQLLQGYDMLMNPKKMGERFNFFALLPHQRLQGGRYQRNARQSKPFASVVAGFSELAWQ

MRPL14 (human) = MRPL14 (human) (UniProt Q6P1L8)
GLRX5 (human) = GLRX5 (human) (UniProt Q86SX6)
MRPS7 (human) = MRPS7 (human) (UniProt Q9Y2R9)
CLIC4 (human) = CLIC4 (human) (UniProt Q9Y696)
RTN4IP1 (human) = RTN4IP1 (human) (UniProt Q8WWV3)
IDI1 (human) = IDI1 (human) (UniProt Q13907)
MTHFD1L (human) = MTHFD1L (human) (UniProt Q6UB35)
COX5A (human) = COX5A (human) (UniProt P20674)
ABHD10 (human) = ABHD10 (human) (UniProt Q9NUJ1)
Chain of ABHD10 (human) (Q9NUJ1 53-306 limits assumed): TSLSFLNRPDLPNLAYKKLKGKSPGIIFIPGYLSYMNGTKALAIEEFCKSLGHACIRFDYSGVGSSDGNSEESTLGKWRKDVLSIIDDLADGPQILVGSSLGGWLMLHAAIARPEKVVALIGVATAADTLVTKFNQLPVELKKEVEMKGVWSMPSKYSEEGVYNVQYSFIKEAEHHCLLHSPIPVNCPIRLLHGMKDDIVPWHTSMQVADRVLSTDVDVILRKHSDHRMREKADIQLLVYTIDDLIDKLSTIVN

NDUFA12 (human) = NDUFA12 (human) (UniProt Q9UI09)
Chain of NDUFA12 (human) (Q9UI09 whole entry): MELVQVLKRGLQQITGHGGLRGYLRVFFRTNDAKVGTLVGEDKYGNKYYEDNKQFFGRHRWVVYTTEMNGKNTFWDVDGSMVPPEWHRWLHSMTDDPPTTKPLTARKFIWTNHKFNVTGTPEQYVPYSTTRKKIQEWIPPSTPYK

DHTKD1 (human) = DHTKD1 (human) (UniProt Q96HY7)
Chain of DHTKD1 (human) (Q96HY7 whole entry): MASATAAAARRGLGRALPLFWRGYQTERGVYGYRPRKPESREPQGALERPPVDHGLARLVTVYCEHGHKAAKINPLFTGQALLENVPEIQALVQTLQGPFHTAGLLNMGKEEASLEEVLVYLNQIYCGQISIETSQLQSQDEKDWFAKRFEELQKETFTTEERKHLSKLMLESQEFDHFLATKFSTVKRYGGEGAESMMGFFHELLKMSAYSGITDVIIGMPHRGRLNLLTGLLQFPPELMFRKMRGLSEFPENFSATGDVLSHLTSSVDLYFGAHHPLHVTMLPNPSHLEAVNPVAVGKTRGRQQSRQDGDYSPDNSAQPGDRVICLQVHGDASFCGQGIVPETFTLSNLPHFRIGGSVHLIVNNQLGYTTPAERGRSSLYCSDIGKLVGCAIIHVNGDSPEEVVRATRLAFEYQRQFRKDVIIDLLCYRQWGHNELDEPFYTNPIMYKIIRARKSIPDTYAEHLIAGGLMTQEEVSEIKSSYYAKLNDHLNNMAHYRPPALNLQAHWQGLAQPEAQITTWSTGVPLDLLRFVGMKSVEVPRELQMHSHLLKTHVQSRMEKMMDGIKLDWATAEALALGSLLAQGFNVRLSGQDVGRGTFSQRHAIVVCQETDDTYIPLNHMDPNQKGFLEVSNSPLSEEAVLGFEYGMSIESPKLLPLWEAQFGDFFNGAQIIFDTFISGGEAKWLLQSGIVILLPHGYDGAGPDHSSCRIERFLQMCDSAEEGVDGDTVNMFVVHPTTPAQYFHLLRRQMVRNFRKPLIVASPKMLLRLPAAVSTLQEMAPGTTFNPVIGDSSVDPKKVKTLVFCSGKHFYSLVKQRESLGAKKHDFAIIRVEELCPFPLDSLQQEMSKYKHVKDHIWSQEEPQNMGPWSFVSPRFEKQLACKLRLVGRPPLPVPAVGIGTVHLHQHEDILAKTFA

NFUl (human) = NFUl (human) (UniProt Q9UMS0)
K1AA0564 (human) = K1AA0564 (human) (UniProt A3KMH1)
Chain of K1AA0564 (human) (A3KMH1 29-1905 limits assumed): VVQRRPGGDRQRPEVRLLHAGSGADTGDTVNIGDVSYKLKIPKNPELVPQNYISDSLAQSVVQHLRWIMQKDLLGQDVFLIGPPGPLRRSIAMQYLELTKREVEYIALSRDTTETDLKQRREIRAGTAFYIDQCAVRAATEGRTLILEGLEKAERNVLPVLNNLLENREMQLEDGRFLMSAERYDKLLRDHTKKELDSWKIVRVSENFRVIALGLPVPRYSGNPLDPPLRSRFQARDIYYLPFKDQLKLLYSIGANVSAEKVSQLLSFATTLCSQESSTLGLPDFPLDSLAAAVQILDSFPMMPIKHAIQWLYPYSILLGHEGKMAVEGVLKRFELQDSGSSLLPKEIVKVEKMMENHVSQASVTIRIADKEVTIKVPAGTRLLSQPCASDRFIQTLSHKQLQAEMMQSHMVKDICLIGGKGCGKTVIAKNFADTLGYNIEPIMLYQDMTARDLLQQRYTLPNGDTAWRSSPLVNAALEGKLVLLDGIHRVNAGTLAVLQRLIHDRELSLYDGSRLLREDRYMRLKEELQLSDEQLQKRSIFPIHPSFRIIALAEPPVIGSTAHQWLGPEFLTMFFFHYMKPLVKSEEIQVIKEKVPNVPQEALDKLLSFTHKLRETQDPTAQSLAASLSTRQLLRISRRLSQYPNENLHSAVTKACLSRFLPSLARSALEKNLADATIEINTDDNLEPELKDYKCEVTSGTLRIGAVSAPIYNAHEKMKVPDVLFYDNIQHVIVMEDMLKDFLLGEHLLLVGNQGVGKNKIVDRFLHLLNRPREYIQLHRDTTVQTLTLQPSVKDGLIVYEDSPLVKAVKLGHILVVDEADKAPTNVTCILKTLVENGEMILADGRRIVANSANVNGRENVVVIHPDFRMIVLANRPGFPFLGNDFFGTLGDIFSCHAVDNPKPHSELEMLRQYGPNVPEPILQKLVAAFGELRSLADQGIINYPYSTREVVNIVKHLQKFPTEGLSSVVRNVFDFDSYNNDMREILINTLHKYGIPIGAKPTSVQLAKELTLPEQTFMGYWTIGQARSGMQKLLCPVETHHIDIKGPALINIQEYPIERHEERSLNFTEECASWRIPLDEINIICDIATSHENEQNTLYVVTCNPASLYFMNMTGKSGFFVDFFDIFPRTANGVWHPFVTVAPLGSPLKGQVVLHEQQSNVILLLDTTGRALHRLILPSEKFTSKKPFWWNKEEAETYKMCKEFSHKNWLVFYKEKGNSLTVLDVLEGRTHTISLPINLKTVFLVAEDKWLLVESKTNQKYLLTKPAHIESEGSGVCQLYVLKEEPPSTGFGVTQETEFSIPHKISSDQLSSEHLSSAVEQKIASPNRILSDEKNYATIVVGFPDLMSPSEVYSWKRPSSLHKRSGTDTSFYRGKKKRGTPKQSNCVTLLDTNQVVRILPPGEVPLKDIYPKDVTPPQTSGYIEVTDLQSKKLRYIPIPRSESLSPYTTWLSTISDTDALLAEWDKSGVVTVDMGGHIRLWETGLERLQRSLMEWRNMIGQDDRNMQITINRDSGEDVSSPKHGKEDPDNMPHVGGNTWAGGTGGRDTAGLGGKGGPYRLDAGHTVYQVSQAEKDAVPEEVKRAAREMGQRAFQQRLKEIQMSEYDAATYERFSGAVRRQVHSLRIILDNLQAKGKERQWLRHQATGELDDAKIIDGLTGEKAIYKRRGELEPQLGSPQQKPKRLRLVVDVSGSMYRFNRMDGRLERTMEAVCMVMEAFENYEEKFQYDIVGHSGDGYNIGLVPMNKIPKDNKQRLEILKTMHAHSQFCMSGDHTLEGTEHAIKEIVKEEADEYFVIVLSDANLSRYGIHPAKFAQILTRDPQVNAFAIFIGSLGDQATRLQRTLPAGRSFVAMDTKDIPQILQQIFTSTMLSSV

NDUFAF7 (human) = NDUFAF7 (human) (UniProt Q7L592)
Chain of NDUFAF7 (human) (Q7L592 47-441 limits assumed): as the sequence (Q7L592 47-441 limits assumed) above

CRAT (human) = CRAT (human) (UniProt P43155)
PMPCA (human) = PMPCA (human) (UniProt Q10713)
MRPS17 (human) = MRPS17 (human) (UniProt Q9Y2R5)
PPIF (human) = PPIF (human) (UniProt P30405)
Chain of PPIF (human) (P30405 30-207 limits assumed): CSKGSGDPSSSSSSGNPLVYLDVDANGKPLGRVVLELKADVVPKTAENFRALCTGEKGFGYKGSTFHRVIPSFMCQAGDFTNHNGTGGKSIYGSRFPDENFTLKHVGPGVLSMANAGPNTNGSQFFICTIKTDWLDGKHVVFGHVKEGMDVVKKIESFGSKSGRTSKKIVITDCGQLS

MRPL21 (human) = MRPL21 (human) (UniProt Q7Z2W9)
HIBCH (human) = HIBCH (human) (UniProt Q6NVY1)
GLS (human) = GLS (human) (UniProt O94925)
C20orf7 (human) = C20orf7 (human) (UniProt Q5TEU4)
GATB (human) = GATB (human) (UniProt O75879)
SDHA (human) = SDHA (human) (UniProt P31040)
C12orf10 (human) = C12orf10 (human) (UniProt Q9HB07)
HARS2 (human) = HARS2 (human) (UniProt P49590)
Chain of HARS2 (human) (P49590 34-506 limits assumed): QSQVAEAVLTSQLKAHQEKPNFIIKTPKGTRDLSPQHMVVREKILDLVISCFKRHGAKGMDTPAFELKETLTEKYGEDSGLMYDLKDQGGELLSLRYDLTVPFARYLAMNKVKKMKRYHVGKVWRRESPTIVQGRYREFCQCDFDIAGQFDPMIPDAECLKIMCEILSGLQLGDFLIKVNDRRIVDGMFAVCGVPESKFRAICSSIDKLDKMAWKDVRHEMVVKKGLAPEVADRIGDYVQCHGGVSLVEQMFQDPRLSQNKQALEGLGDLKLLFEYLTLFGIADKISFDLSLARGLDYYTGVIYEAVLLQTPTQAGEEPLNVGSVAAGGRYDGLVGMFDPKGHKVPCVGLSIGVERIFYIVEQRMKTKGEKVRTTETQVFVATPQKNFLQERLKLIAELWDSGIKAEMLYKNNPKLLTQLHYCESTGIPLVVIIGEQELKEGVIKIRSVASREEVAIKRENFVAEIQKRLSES

HSD17B8 (human) = HSD17B8 (human) (UniProt Q92506)
GCDH (human) = GCDH (human) (UniProt Q92947)
METTL17 (human) = METTL17 (human) (UniProt Q9H7H0)
ARG2 (human) = ARG2 (human) (UniProt P78540)
GLUD1 (human) = GLUD1 (human) (UniProt P00367)
CHCHD3 (human) = CHCHD3 (human) (UniProt Q9NX63)
Chain of CHCHD3 (human) (Q9NX63 2-227 limits assumed): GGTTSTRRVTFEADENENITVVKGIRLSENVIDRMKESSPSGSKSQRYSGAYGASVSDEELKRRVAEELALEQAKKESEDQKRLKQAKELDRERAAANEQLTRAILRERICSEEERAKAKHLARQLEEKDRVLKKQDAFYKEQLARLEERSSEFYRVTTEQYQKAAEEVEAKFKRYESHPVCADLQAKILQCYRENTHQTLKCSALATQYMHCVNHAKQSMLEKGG

NIPSNAP1 (human) = NIPSNAP1 (human) (UniProt Q9BPW8)

Chain of GRPEL1 (human) (Q9HAV7 28-217 limits assumed): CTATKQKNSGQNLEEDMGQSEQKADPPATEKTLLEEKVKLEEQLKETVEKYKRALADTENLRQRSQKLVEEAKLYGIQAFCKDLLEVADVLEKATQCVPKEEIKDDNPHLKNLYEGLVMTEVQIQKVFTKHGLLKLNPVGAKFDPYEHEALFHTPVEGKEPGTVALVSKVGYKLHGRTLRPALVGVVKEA

Log2 Fold change (vs control) (SDHB (human)): -0.82 log2
Log2 Fold change (vs control) (FMC1 (human)): -6.86 log2
Log2 Fold change (vs control) (MRPS16 (human)): -3.81 log2
Log2 Fold change (vs control) (NUDT19 (human)): -3.1 log2
Log2 Fold change (vs control) (GRPEL1 (human)): -5.52 log2
Log2 Fold change (vs control) (ETFB (human)): -1.35 log2
Log2 Fold change (vs control) (C8orf82 (human)): -1.19 log2
Log2 Fold change (vs control) (ALDH6A1 (human)): -3.81 log2
Log2 Fold change (vs control) (PIN1 (human)): -0.11 log2
Log2 Fold change (vs control) (POLRMT (human)): -2.95 log2
Log2 Fold change (vs control) (NUDT1 (human)): -1 log2
Log2 Fold change (vs control) (PET112 (human)): -3.03 log2
Log2 Fold change (vs control) (EARS2 (human)): -1.29 log2
Log2 Fold change (vs control) (CARS2 (human)): -0.21 log2
Log2 Fold change (vs control) (COQ6 (human)): -3.7 log2
Log2 Fold change (vs control) (ACAA2 (human)): -0.88 log2
Log2 Fold change (vs control) (OGDH (human)): -3.7 log2
Log2 Fold change (vs control) (C2orf56 (human)): -2.44 log2
Log2 Fold change (vs control) (MRPL14 (human)): -3.46 log2
Log2 Fold change (vs control) (GLRX5 (human)): -5.21 log2
Log2 Fold change (vs control) (MRPS7 (human)): -2.77 log2
Log2 Fold change (vs control) (CLIC4 (human)): -0.49 log2
Log2 Fold change (vs control) (RTN4IP1 (human)): -1.5 log2
Log2 Fold change (vs control) (IDI1 (human)): -0.22 log2
Log2 Fold change (vs control) (MTHFD1L (human)): -0.39 log2
Log2 Fold change (vs control) (COX5A (human)): -2.87 log2
Log2 Fold change (vs control) (ABHD10 (human)): -1.53 log2
Log2 Fold change (vs control) (NDUFA12 (human)): -7.55 log2
Log2 Fold change (vs control) (DHTKD1 (human)): -5.25 log2
Log2 Fold change (vs control) (NFUl (human)): -4.32 log2
Log2 Fold change (vs control) (K1AA0564 (human)): -0.71 log2
Log2 Fold change (vs control) (NDUFAF7 (human)): -1.89 log2
Log2 Fold change (vs control) (CRAT (human)): -4 log2
Log2 Fold change (vs control) (PMPCA (human)): -1.21 log2
Log2 Fold change (vs control) (MRPS17 (human)): -4.25 log2
Log2 Fold change (vs control) (PPIF (human)): -1.81 log2
Log2 Fold change (vs control) (MRPL21 (human)): -4.52 log2
Log2 Fold change (vs control) (HIBCH (human)): -1.55 log2
Log2 Fold change (vs control) (GLS (human)): -0.71 log2
Log2 Fold change (vs control) (C20orf7 (human)): -1.21 log2
Log2 Fold change (vs control) (GATB (human)): -1.84 log2
Log2 Fold change (vs control) (SDHA (human)): -0.94 log2
Log2 Fold change (vs control) (C12orf10 (human)): -3.75 log2
Log2 Fold change (vs control) (HARS2 (human)): -1.3 log2
Log2 Fold change (vs control) (HSD17B8 (human)): -1.26 log2
Log2 Fold change (vs control) (GCDH (human)): -0.17 log2
Log2 Fold change (vs control) (METTL17 (human)): -3.58 log2
Log2 Fold change (vs control) (ARG2 (human)): -0.16 log2
Log2 Fold change (vs control) (GLUD1 (human)): -1.63 log2
Log2 Fold change (vs control) (CHCHD3 (human)): -3.46 log2
Log2 Fold change (vs control) (NIPSNAP1 (human)): -1.19 log2
Substance: FlagBirA-ClpP (WT) (from UniProt P06709 1-321; Q16740 57-277) (enzyme)
